From article PMC5300155, “Biochemical and biophysical investigations of the interaction between human glucokinase and pro-apoptotic BAD” (PLoS ONE, 2017)

T1: human pancreatic GCK (Homo sapiens, UniProt P35557)
T1 construct: hexahistidine (N); made in house; host or cells: glucokinase auxotroph BM5340(DE3)
T1 sequence (P35557 1-465): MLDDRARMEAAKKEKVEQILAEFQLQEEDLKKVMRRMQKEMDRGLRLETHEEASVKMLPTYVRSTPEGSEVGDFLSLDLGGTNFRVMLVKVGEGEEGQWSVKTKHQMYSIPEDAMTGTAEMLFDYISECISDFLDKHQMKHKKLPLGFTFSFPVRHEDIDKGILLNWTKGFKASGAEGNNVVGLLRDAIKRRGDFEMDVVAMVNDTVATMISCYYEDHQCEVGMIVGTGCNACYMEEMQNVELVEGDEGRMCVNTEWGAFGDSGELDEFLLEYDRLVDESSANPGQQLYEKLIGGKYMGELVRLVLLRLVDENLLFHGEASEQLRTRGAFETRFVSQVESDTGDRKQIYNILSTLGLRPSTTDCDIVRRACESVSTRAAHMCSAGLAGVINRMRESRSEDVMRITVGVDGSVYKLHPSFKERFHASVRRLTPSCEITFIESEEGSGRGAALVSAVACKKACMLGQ


Legend:
[1] = target: recombinant human Bcl-xL, Δ45–84, Δ210–233 variant (human) (UniProt Q07817); experiment: fluorescence polarisation; competition: 200 nM f-BH3, 50 nM Bcl-xL, BAD forms varied 0–50 μM; room temperature
[2] = target: T2, recombinant human Bcl-xL, Δ45–84, Δ210–233 variant (human, UniProt Q07817-1 1-209, Δ45–84); experiment: as above; details: both partners purified
T2 construct: Bcl-xL, human; loop 45-84 deleted and C-terminal residues 210-233 lacking; also called soluble, recombinant Bcl-xL

human pancreatic GCK = target: T1, human pancreatic GCK; experiment: GCK activity, G6PDH-linked assay (lab's routine assay, 25°C); type: biochemical; details: for Increase in GCK activity relative to unmodified / wild-type protein: only at glucose concentrations below K0.5 (3SD, 3SA), phosphorylated BAD after cleavage of GST tag
Procedure: Recombinant human pancreatic GCK containing an N-terminal hexahistidine tag was produced in the glucokinase auxotroph BM5340(DE3) and purified using a previously described procedure. TEV protease was expressed as a GST-fusion protein from a pGEX plasmid encoding the S219V variant, provided by David Waugh (Addgene plasmid 8827). Expression was induced with IPTG (1 mM) for 4 h at 30°C. Cell pellets were resuspended in Tris buffer (50 mM, pH 8.0) containing NaCl (100 mM), glycerol (10% v/v), benzamidine (1 mM) and dithiothreitol (10 mM) and lysed via French Press. Polyethyleneimine (0.1%) was added to the lysate and protein was purified on a glutathione-affinity column (GSTrap, GE Sciences). TEV protease was flash frozen and stored at -80°C for up to 1 month.
GCK activity was assayed using a glucose 6-phosphate dehydrogenase (G6PDH)-linked assay at 25°C. 50 nM GCK was assayed in buffer containing HEPES (100 mM, pH 7.4), KCl (50 mM), NADP^+ (0.5 mM), DTT (10 mM), MgCl2 (7 mM), G6PDH (1.5 U) and glucose (0–100 mM) in a total volume of […]. Addition of ATP (6 mM) initiated the reaction. Production of NADPH was measured at 340 nm. To determine the effect of BAD on GCK activity, 5 μL of BAD or buffer control was added to the reaction in a final volume of 100 μL. K0.5 values were determined by fitting to the Hill equation. The effect of BAD on GCK activity is reported as the percent rate increase at individual glucose concentrations, calculated as the average of a minimum of four rates of BAD-containing assays divided by the average of rates of BAD buffer-containing assays. The results represent the average of at least three independent preparations of pure BAD.

T2 sequence (Q07817 other isoform, or with tags, fused parts or gaps Δ45–84 | Δ45–84 | mutant): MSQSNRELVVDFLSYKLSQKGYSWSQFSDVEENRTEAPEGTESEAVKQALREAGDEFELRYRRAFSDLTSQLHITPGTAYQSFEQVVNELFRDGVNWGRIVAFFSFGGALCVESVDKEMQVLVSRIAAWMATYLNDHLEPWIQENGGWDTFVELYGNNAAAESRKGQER
Sequence of recombinant human Bcl-xL, Δ45–84, Δ210–233 variant (human) (Q07817 other isoform, or with tags, fused parts or gaps mutant): as the sequence (Q07817 other isoform, or with tags, fused parts or gaps Δ45–84 | Δ45–84 | mutant) above

Molecule	IC50 [2] [µM]	Increase in GCK activity relative to unmodified / wild-type protein (human pancreatic GCK)	also measured
BAD following cleavage and removal of the GST tag (from UniProt Q92934 1-168) (natural protein)			IC50 [1]: 440 nM
S75D-S99D-S118D triple variant of BAD-GST (natural protein, human, UniProt Q92934 1-168, looked up, BAD, human; 507 bp bad cDNA amplified from the IMAGE clone; triple phosphomimic; also called 3SD; source: E. coli BL21(DE3), purified as BAD-GST; not shown: GST, C-terminal, kept) MFQIPEFEPSEQEDSSSAERGLGPSPAGDGPSGSGKHHRQAPGLLWDASHQQEQPTSSSHHGGAGAVEIRSRHSDYPAGTEDDEGMGEEPSPFRGRSRDAPPNLWAAQRYGRELRRMDDEFVDSFKKGLPRPKSAGTATQMRQSSSWTRVFQSWWDRNLGRGSSAPSQ	> 19		
S75D-S99D-S118D triple variant of BAD-GST: S75D-S99D-S118D triple variant of BAD-GST, mimics fully phosphorylated protein (protein, left off: His6, N-terminal, state not stated | GST, C-terminal, kept, S75D-S99D-S118D triple variant of BAD-GST, mimics fully phosphorylated protein) MFQIPEFEPSEQEDSSSAERGLGPSPAGDGPSGSGKHHRQAPGLLWDASHQQEQPTSSSHHGGAGAVEIRSRHSDYPAGTEDDEGMGEEPSPFRGRSRDAPPNLWAAQRYGRELRRMDDEFVDSFKKGLPRPKSAGTATQMRQSSSWTRVFQSWWDRNLGRGSSAPSQ		to the same relative extent as wild-type BAD-GST	Activation of GCK by triple variant (human pancreatic GCK; 0.78 mM glucose, > 2 μM, comparable to phosphorylated BAD (15%)): A comparable degree of activation
phosphorylated BAD: phosphorylated BAD after cleavage of the GST tag (protein, phosphoserine at 75, 99 and 118 (by PKA, as for phosphorylated BAD-GST); left off: His6, N-terminal, state not stated | GST, C-terminal, cleaved, phosphorylated BAD after cleavage of the GST tag) MFQIPEFEPSEQEDSSSAERGLGPSPAGDGPSGSGKHHRQAPGLLWDASHQQEQPTSSSHHGGAGAVEIRSRHSSYPAGTEDDEGMGEEPSPFRGRSRSAPPNLWAAQRYGRELRRMSDEFVDSFKKGLPRPKSAGTATQMRQSSSWTRVFQSWWDRNLGRGSSAPSQ		to a similar extent as unmodified BAD	
3SA: BAD-GST variant in which alanine was substituted at the three target serine residues (protein, left off: His6, N-terminal, state not stated | GST, C-terminal, kept, BAD-GST variant in which alanine was substituted at the three target serine residues) MFQIPEFEPSEQEDSSSAERGLGPSPAGDGPSGSGKHHRQAPGLLWDASHQQEQPTSSSHHGGAGAVEIRSRHSAYPAGTEDDEGMGEEPSPFRGRSRAAPPNLWAAQRYGRELRRMADEFVDSFKKGLPRPKSAGTATQMRQSSSWTRVFQSWWDRNLGRGSSAPSQ		to the same relative extent as wild-type BAD-GST	
S118D BAD-GST variant (natural protein, human, UniProt Q92934 1-168, looked up, BAD, human; 507 bp bad cDNA amplified from the IMAGE clone; phosphomimic; also called S118D variant; BAD-GST S118D; source: E. coli BL21(DE3), purified as BAD-GST; not shown: GST, C-terminal, kept) MFQIPEFEPSEQEDSSSAERGLGPSPAGDGPSGSGKHHRQAPGLLWDASHQQEQPTSSSHHGGAGAVEIRSRHSSYPAGTEDDEGMGEEPSPFRGRSRSAPPNLWAAQRYGRELRRMDDEFVDSFKKGLPRPKSAGTATQMRQSSSWTRVFQSWWDRNLGRGSSAPSQ	> 15		
S75D-S99D double variant of BAD-GST (natural protein, human, UniProt Q92934 1-168, looked up, BAD, human; 507 bp bad cDNA amplified from the IMAGE clone; double phosphomimic; source: E. coli BL21(DE3), purified as BAD-GST; not shown: GST, C-terminal, kept) MFQIPEFEPSEQEDSSSAERGLGPSPAGDGPSGSGKHHRQAPGLLWDASHQQEQPTSSSHHGGAGAVEIRSRHSDYPAGTEDDEGMGEEPSPFRGRSRDAPPNLWAAQRYGRELRRMSDEFVDSFKKGLPRPKSAGTATQMRQSSSWTRVFQSWWDRNLGRGSSAPSQ	0.087		
